{
  "source": "patent US12416018B2",
  "about": "“Regulation of gene expression by aptamer-mediated modulation of alternative splicing” (MEIRAGTX GENE REGULATION LIMITED, priority 2015, dated 2025)",
  "molecules": {"B1": {"name": "xpt-G17: intron-exon-intron cassette containing the xpt-G17 guanine riboswitch, SEQ ID NO: 15, inserted in various target genes (nucleic acid)", "DNA": "GTGAGTCTATGGGACCCTTGATGTTTTCTTTCCCCTTCTTTTCTATGGTTAAGTTCATGTCATAGGAAGGGGAGAAGTAACAGGGTACACATATTGACCAAATCAGGGTAATTTTGCATTTGTAATTTTAAAAAATGCTTTCTTCTTTTAATATACTTTTTTGTTTATCTTATTTCTAATACTTTCCCTAATCTCTTTCTTTCAGGGCAATAATGATACAATGTATCATGCCGAGTAACGCTGTTTCTCTAACTTGTAGGAATGAATTCAGATATTTCCAGAGAATGAAAAAAAAATCTTCAGTAGAAGGTAATGTATAATCGCGTGGATATGGCACGCAAGTTTCTACCGGGCACCGTAAATGTCCGACTACATTACGCACCATTCTAAAGAATAACAGTGATAATTTCTGGGTTAAGGCAATAGCAATATTTCTGCATATAAATATTTCTGCATATAAATTGTAACTGATGTAAGAGGTTTCATATTGCTAATAGCAGCTACAATCCAGCTACCATTCTGCTTTTATTTTATGGTTGGGATAAGGCTGGATTATTCTGAGTCCAAGCTAGGCCCTTTTGCTAATCATGTTCATACCTCTTATCTTCCTCCCACAG", "modifications": "xpt-G17 riboswitch"}},
  "key": {"[1]": {"test_system": "anti-KDR antibody production in HEK 293 cells", "type": "cell-based", "settings": "500 μM guanine", "experimental": "Xpt-guanine aptamer with the following sequence: cactcatataat[…]cgact atgggtg (SEQ ID NO.: 10), was used to construct a riboswitch. Oligos containing the sequence of guanine aptamer and hairpin stem with 4 nucleotide 5′ overhang were synthesized (IDT), annealed and then ligated to BsaI-digested DHFR-acceptor vector. HEK 293 cells were transfected as described in Example 1. Four hours after transfection, the media was aspirated, and new media with or without 500 μM guanine was added. Luciferase expression was assayed 20 to 24 hrs after guanine treatment as described in Example 1 and Example 4. HepG2, AML12, RD and C2C12 (ATCC) were cultured using the protocol recommended by ATCC. The intron-exon-intron cassette containing the xpt-G17 riboswitch (SEQ ID NO.: 15) was inserted in the leader peptide sequences of the anti-KDR antibody gene and into the Stul site in mouse erythropoietin gene using Gibson cloning strategy (NEB). Constructs containing mouse erythropoietin (Epo) or anti-KDR antibody were transfected into HEK 293 cells. Four hour after transfection, the media was aspirated, and new media with or without 500 μM guanine was added. Supernatants were subjected to ELISA assay for the production of either anti-KDR antibody or the production of mouse Epo (R&D Systems)."}, "[2]": {"test_system": "EGFP expression in HEK 293 cells", "test": "Flow cytometry / imaging of EGFP with regulatory cassettes in HEK 293 cells", "type": "cell-based", "settings": "stably transfected HEK 293, 500 μM guanine", "experimental": "The intron-mtDHFR-aptamer-intron cassette was PCR amplified and cloned using Golden Gate cloning strategy (NEB) into pEGFP-C1 vector. To obtain a cell line stably expressing EGFP with riboswitch, HEK-293 cells were electroporated with 20 ng of plasmid DNA. Forty eight hours after electroporation, cell culture was selected with 800 μg/ml G418 for 2 weeks for cells that stably express the cassette. Cells were trypsinized and cell suspension was subjected to flow cytometric analysis of intensity of GFP fluorescence using a Guava EasyCyte 8HT machine. The resulting data was analyzed using GuavaSoft2.2.2.\nConstructs were made using Golden Gate cloning strategy (NEB). […] Luciferase activity was assayed as described in Example 5."}},
  "data": [
    {"molecule": "B1", "values": [
      {"measurement": "induced antibody expression as percent of control construct containing the Con 1 intron sequences", "setting": "[1]", "value": "about 40%"},
      {"measurement": "time after guanine treatment at which fluorescence was detected", "setting": "[2]", "value": 6, "unit": "h"}
    ]}
  ]
}
